Measurements: US10400022B2, “Neuropilin-1 specific binding peptide, fusion protein fused with same, and use thereof” (AJOU UNIVERSITY INDUSTRY-ACADEMIC COOPERATION FOUNDATION, priority 2015, dated 2019)
Where no end group is shown, it is not given here.

What was measured:
[1] = molecular target: T1, NRP1 displayed on the human umbilical vein endothelial cell (HUVEC) surface (Homo sapiens, UniProt O14786); assay: Confocal co-localization with NRP1 on HUVEC surface; type: cell-based; conditions: 1 μM, 30 minutes, 4° C., confocal microscopy
T1 construct: endogenous in cells; host or cells: HUVEC
Procedure: In an experiment for biological identification of the peptides that binds specifically to NRP1, human umbilical vein endothelial cells (HUVECs) overexpressing NRP1 were used.
Specifically, 5×10^4 HUVEC cells were added to each well of a 24-well plate and incubated in 0.5 ml of EGM2 (Endothelial growth medium, Promocell) medium for 24 hours under the conditions of 5% CO2 and 37° C. […] Next, the medium was removed, and each well was washed with cold PBS. Then, the fusion protein wherein the selected peptide that binds specifically to NRP1 is fused to the antibody heavy-chain constant region was stained with FITC (green fluorescence)-labeled antibody (Sigma) that specifically recognizes Fc, and NRP1 was stained with primary antibody (Abcam) that recognizes NRP1 and with TRITC (red fluorescence)-labeled secondary antibody. The nucleus was stained (blue fluorescence) with DAPI and analyzed by confocal microscopy.

VE-cadherin = assay: Western blot of VE-cadherin in HUVEC; type: cell-based, human
Procedure: Specifically, 5×10^5 HUVEC cells were seeded into each well of a 6-well plate and incubated for 24 hours, […] constant Fc region and the selected peptide that binds specifically to NRP1, for 10 minutes, followed by Western blot analysis. After SDS-PAGE, the gel was transferred to a PVDF membrane, and detection was performed using primary antibodies (SantaCruz) that recognize VE-cadherin and β-actin and using HRP-conjugated secondary antibody (SantaCruz), and analysis was performed using ImageQuant LAS4000 mini (GE Healthcare).

[2] = tested on: human umbilical vein endothelial cells (HUVECs); assay: Transwell assay of penetration of vascular endothelial cells (dextran-FITC); type: cell-based; conditions: 1 μM for 30 minutes (VEGF165A about 1.3 nM); dextran-FITC fluorescence in lower chamber
Procedure: Specifically, 5×10^4 human umbilical vein endothelial cells (HUVECs) were seeded into the upper chamber of a transwell plate (Corning) and incubated in EGM2 for 3 days under the conditions of 37° C. and 5% CO2. […] Then, 50 μl of dextran-FITC (Sigma) was added to the upper chamber. After 30 minutes, based on the principle according to which the fluorescent substance would be observed when penetration into the vascular endothelial cells was increased, the medium was sampled from the lower chamber and the fluorescence thereof was measured.

[3] = tested on: A431 cells expressing neuropilin-1; assay: Immunohistochemistry of tumor tissue penetration in A431 xenograft; type: in vivo, Balb/c nude mice; conditions: 10 mg/kg intravenously, 15 hours after injection
Procedure: At 15 hours after injection, the tumor was extracted from the mice and subjected to immunohistochemistry. The extracted tumor tissue was sectioned to a thickness of 20 μm by a frozen-section method, and the blood vessels were stained with the primary antibody CD31 antibody (BD Pharmingen) and TRITC (red fluorescence)-labeled secondary antibody that recognizes the same. In addition, to observe the distribution of the Fc-TPP1, Fc-TPP8 and Fc-TPP11 fusion proteins in the tissue, an FITC (green fluorescence)-labeled antibody that recognizes Fc was used.

E-cadherin = assay: Western blot of E-cadherin in FaDu cells; type: cell-based; conditions: human head and neck cancer FaDu cells
Procedure: Specifically, 5×10^5 HUVEC cells were seeded into each well of a 6-well plate and incubated for 24 hours, and then treated with 0.1 μM of the fusion protein of the antibody heavy-chain constant Fc region and the selected peptide that binds specifically to NRP1, for 10 minutes, followed by Western blot analysis. After SDS-PAGE, the gel was transferred to a PVDF membrane, and detection was performed using primary antibodies (SantaCruz) that recognize VE-cadherin and β-actin and using HRP-conjugated secondary antibody (SantaCruz), and analysis was performed using ImageQuant LAS4000 mini (GE Healthcare).
In order to examine whether the Fc-TPP1, Fc-TPP8 and Fc-TPP11 fusion proteins also have an enhanced ability to penetrate cancer cells, a change in E-cadherin in human head and neck cancer FaDu cells expressing NRP1 was analyzed by Western blot analysis under the same conditions as described above.

[4] = molecular target: T2, NRP1-b1b2 (273-586) protein (Homo sapiens, UniProt O14786); assay: Competitive ELISA with VEGF165A / RPARPAR on NRP1-b1b2; type: binding
T2 construct: made in house
Procedure: In order to evaluate competitive binding of the TPP11 peptide, which binds specifically to NRP1 without binding to NRP2, and VEGF165A and a RPARPAR peptide, known to bind to the arginine-binding pocket of the NRP1-b1 domain, competitive ELISA was performed.
Specifically, binding NRP1-b1b2 (273-586) protein to each well of a 96-well EIA/RIA plate or a 96-well EIA/RIA black plate (COSTAR Corning In., USA) at room temperature for […], is followed by washing three times with 0.1% PBST (0.1% Tween20, pH 7.4, 137 mM NaCl, 10 mM Phosphate, 2.7 mM KCl, SIGMA-ALDRICH co., USA) for 10 minutes. After binding with 5% skim milk (5% Skim milk, pH 7.4, 137 mM NaCl, 10 mM Phosphate, 2.7 mM KCl, SIGMA-ALDRICH co., USA) for 1 hour, each well was washed three times with 0.1% PBST (0.1% Tween20, pH 7.4, 137 mM NaCl, 10 mM Phosphate, 2.7 mM KCl, SIGMA-ALDRICH co., USA) for 10 minutes. […] Then, each mixture was incubated with AP-conjugated anti-human antibody (alkaline phosphatase-conjugated anti-human mAb, Sigma, USA), and then reacted with pNPP ([…], SIGMA-ALDRICH co., USA), and the absorbance at 405 nm was measured.

[5] = tested on: VEGF165A-induced angiogenesis; assay: In vivo matrigel plug assay; set-up: species or system Balb/c nude mice; conditions: 200 μg in matrigel plug with A431 cells, 8 days
Procedure: Additionally, in order to examine anti-angiogenesis activity in vivo, a matrigel plug assay was performed. […] After 8 days, the matrigel plug was extracted, imaged (FIG. 15(B)), and then sectioned to a thickness of 20 μm by a frozen-section method, and subjected to immunohistochemistry. The blood vessels were stained with the primary antibody CD31 and a TRITC (red fluorescence)-labeled secondary antibody recognizing the same, and the density of the blood vessels was measured.

biotinylated NRP1-b1b2 = molecular target: T3, biotinylated NRP1-b1b2 (Homo sapiens, UniProt O14786); assay: FACS of yeast surface-displayed clones binding biotinylated NRP1-b1b2; conditions: yeast surface display, compared with A22p
T3 construct: biotin (chemical label on amines, Sulfo-NHS-LC-biotin); made in house
Description: […] In addition, in the MACS and FACS processes, non-biotinylated NRP2-b1b2 was used as a competitive protein for biotinylated NRP1-b1b2 at a 10-fold higher concentration, and individual clones that bind to NRP1-b1b2 were selected.

[6] = molecular target: T2, NRP1-b1b2 (273-586) protein; assay: ELISA binding to NRP1-b1b2; conditions: synthetic peptide not fused to Fc, 100 nM
Procedure: The binding affinities of purified Fc-TPP1, Fc-TPP8 and Fc-TPP11 fusion proteins for the b1b2 domains of NRP1 and NRP2 were analyzed by ELISA (Enzyme Linked Immunosorbent Assay).
To examine specificity for NRP1, the control VEGF165A and Fc, A22p, and each of the fusion proteins wherein the selected peptide that binds specifically to NRP1 is fused to the antibody heavy-chain constant Fc region, was biotinylated using a NHS-biotin kit (SIGMA-ALDRICH co., USA).
1 μg of each of NRP1-b1b2 (273-586) protein, NRP2-b1b2 (275-595) protein and the control group VEGFR2 (46-753) was immobilized in each well of a 96-well EIA/RIA plate (COSTAR Corning In., USA) at room temperature for 1 hour, and then washed three times with 0.1% PBST (0.1% Tween20, pH 7.4, 137 mM NaCl, 10 mM Phosphate, 2.7 mM KCl, SIGMA-ALDRICH co., USA) for 10 minutes. After binding with 5% skim milk (5% Skim milk, pH 7.4, 137 mM NaCl, 10 mM Phosphate, 2.7 mM KCl, SIGMA-ALDRICH co., USA) for 1 hour, each well was washed three times with 0.1% PBST (0.1% Tween20, pH 7.4, 137 mM NaCl, 10 mM Phosphate, 2.7 mM KCl, SIGMA-ALDRICH co., USA) for 10 minutes. […] Each well was bound with AP-conjugated anti-biotin antibody (alkaline phosphatase-conjugated anti-biotin mAb, Sigma, USA), and then reacted with pNPP ([…], SIGMA-ALDRICH co., USA), and the absorbance at 405 nm was measured.

## Fc-A22p: control Fc fusion of A22p peptide (HTPGNSNKWKHLQENKKGRPRR) that binds to both NRP1 and NRP2 (also: fused to Fc, not in chain)
[1]
  binding to NRP1 on the HUVEC cell surface: did bind to NRP1 on the HUVEC cell surface
VE-cadherin; 1 μM
  change in VE-cadherin at 1 μM: VE-cadherin significantly decreased
VE-cadherin; 10 minutes
  change in VE-cadherin: a decrease in VE-cadherin was observed
[2]
  ability to penetrate vascular endothelial cells: had an increased ability to penetrate vascular endothelial cells
[3]
  tumor tissue accumulation and penetration: selectively reached tumor tissue
E-cadherin
  change in E-cadherin: induced a decrease in E-cadherin
[4]; VEGF165A 25 nM to 0.02 nM
  binding to NRP1-b1b2 competitively with VEGF165A: overlapped a portion of NRP1 to which VEGF165A did bind
[5]
  VEGF165A-induced angiogenesis (density of blood vessels, CD31): inhibited VEGF165A-induced angiogenesis in living mice

## TPP1: NRP1-targeting peptide HTPGNSNQFVLTSTRPPR, SEQ ID NO: 1 (Synthetic construct (TPP1))
Biotinylated NRP1-b1b2
  binding to 100 nM biotinylated NRP1-b1b2 (mean fluorescence intensity): showed higher mean fluorescence intensities

## TPP8: NRP1-targeting peptide HTPGIATRTPR, SEQ ID NO: 2 (Synthetic construct (TPP8))
Biotinylated NRP1-b1b2
  binding to 100 nM biotinylated NRP1-b1b2 (mean fluorescence intensity): showed higher mean fluorescence intensities

## TPP11: NRP1-targeting peptide HTPGNSKPTRTPRR, SEQ ID NO: 3 (Synthetic construct (TPP11))
[6]
  lower affinity than Fc-TPP11 for NRP1-b1b2 protein: at least 100 fold
[4]
  competitive binding of synthesized peptide with RPARPAR peptide and VEGF165A: inhibited the binding of the RPARPAR peptide and VEGF165 to NRP1
Biotinylated NRP1-b1b2
  binding to 100 nM biotinylated NRP1-b1b2 (mean fluorescence intensity): showed higher mean fluorescence intensities
